# Reference: publication PMC8967061, “Mechanism of Borrelia immune evasion by FhbA-related proteins” (PLoS Pathogens, 2022)
# Residue numbers refer to the chain shown, from its start.
# T1: BhFhbA Asn153Ala (Borrelia hermsii YOR, UniProt W5SB08 44-202, Asn153Ala)
# T1 construct: FhbA of Borrelia hermsii strain YOR, residues 44-202 as the wild type construct, single alanine mutant; source: E. coli BL21 (DE), purified (Ni-NTA, size-exclusion chromatography)
# T1 sequence (looked up): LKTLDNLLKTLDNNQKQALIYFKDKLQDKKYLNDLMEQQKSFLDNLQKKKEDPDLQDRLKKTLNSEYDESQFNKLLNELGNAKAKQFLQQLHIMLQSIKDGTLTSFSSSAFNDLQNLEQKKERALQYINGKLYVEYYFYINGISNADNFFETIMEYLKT
# T2: BhFhbA Phe85Ala (Borrelia hermsii YOR, UniProt W5SB08 44-202, Phe85Ala)
# T2 construct: FhbA of Borrelia hermsii strain YOR, residues 44-202 as the wild type construct, single alanine mutant; also called #1; source: E. coli BL21 (DE), purified (Ni-NTA, size-exclusion chromatography)
# T2 sequence (looked up): T1 sequence (looked up) with F42A, A110N
# T3: BhFhbA Lys91Ala (Borrelia hermsii YOR, UniProt W5SB08 44-202, Lys91Ala)
# T3 construct: FhbA of Borrelia hermsii strain YOR, residues 44-202 as the wild type construct, single alanine mutant; also called #3; source: E. coli BL21 (DE), purified (Ni-NTA, size-exclusion chromatography)
# T3 sequence (looked up): T1 sequence (looked up) with K48A, A110N
# T4: BhFhbA Glu198Ala (Borrelia hermsii YOR, UniProt W5SB08 44-202, Glu198Ala)
# T4 construct: FhbA of Borrelia hermsii strain YOR, residues 44-202 as the wild type construct, single alanine mutant; also called #10; source: E. coli BL21 (DE), purified (Ni-NTA, size-exclusion chromatography)
# T4 sequence (looked up): T1 sequence (looked up) with A110N, E155A
# T5: BhFhbA Phe181Ala (Borrelia hermsii YOR, UniProt W5SB08 44-202, Phe181Ala)
# T5 construct: FhbA of Borrelia hermsii strain YOR, residues 44-202 as the wild type construct, single alanine mutant; also called #9; source: E. coli BL21 (DE), purified (Ni-NTA, size-exclusion chromatography)
# T5 sequence (looked up): T1 sequence (looked up) with A110N, F138A
# T6: BhFhbA Glu178Ala (Borrelia hermsii YOR, UniProt W5SB08 44-202, Glu178Ala)
# T6 construct: FhbA of Borrelia hermsii strain YOR, residues 44-202 as the wild type construct, single alanine mutant; source: E. coli BL21 (DE), purified (Ni-NTA, size-exclusion chromatography)
# T6 sequence (looked up): T1 sequence (looked up) with A110N, E135A
# T7: BhFhbA Met137Ala (Borrelia hermsii YOR, UniProt W5SB08 44-202, Met137Ala)
# T7 construct: FhbA of Borrelia hermsii strain YOR, residues 44-202 as the wild type construct, single alanine mutant; also called #4; source: E. coli BL21 (DE), purified (Ni-NTA, size-exclusion chromatography)
# T7 sequence (looked up): T1 sequence (looked up) with M94A, A110N
# T8: BhFhbA Ile171Ala (Borrelia hermsii YOR, UniProt W5SB08 44-202, Ile171Ala)
# T8 construct: FhbA of Borrelia hermsii strain YOR, residues 44-202 as the wild type construct, single alanine mutant; source: E. coli BL21 (DE), purified (Ni-NTA, size-exclusion chromatography)
# T8 sequence (looked up): T1 sequence (looked up) with A110N, I128A
# T9: BhFhbA Asn88Ala (Borrelia hermsii YOR, UniProt W5SB08 44-202, Asn88Ala)
# T9 construct: FhbA of Borrelia hermsii strain YOR, residues 44-202 as the wild type construct, single alanine mutant; also called #2; source: E. coli BL21 (DE), purified (Ni-NTA, size-exclusion chromatography)
# T9 sequence (looked up): T1 sequence (looked up) with N45A, A110N
# B1: Factor H binding protein A (FhbA) from Borrelia hermsii, wild type (domain or fragment)
# chain: T1 sequence (looked up) with A110N
# notes: FhbA of Borrelia hermsii strain YOR, without its leader peptide, residues 44-202; also called BhFhbA; Wild type BhFhbA; source: E. coli BL21 (DE), purified (Ni-NTA, size-exclusion chromatography)
# B2: Factor H domains 19-20 (domain or fragment)
# chain: DSTGKCGPPPPIDNGDITSFPLSVYAPASSVEYQCQNLYQLEGNKRITCRNGQWSEPPKCLHPCVISREIMENYNIALRWTAKQKLYSRTGESVEFVCKRGYRLSSRSHTLRTTCWDGKLEYPTCAKR
# modifications: RED-tris-NTA dye label (in the MST assays only)
# notes: human complement factor H, short consensus repeat domains 19-20, wild type; also called FH19-20; FH19-20 fragment
# Assays:
# Details in all cases: both partners purified
# [1] = molecular target: T10, Factor H, full length (human, UniProt P08603 19-1231, RED-tris-NTA dye label (in the MST assays only)); assay: MST; full-length FH labelled with RED-tris-NTA dye, FhbA proteins titrated, PBS/0.025% Tween-20, 22 C
# T10 construct: human complement factor H, 20 short consensus repeat domains; In the functional assays FH was that of whole blood or serum; also called FH; full-length FH; source: bought: Comptech (Complement Technologies), TX, USA
# [2] = molecular target: T1, BhFhbA Asn153Ala; assay: MST; FH19-20 labelled with RED-tris-NTA dye (300 nM stock, mixed 1:1 with ligand), FhbA proteins titrated, PBS/0.025% Tween-20, 22 C
# [3] = molecular target: T2, BhFhbA Phe85Ala; assay: as above
# [4] = molecular target: T3, BhFhbA Lys91Ala; assay: as above
# [5] = molecular target: T4, BhFhbA Glu198Ala; assay: as above
# [6] = molecular target: T5, BhFhbA Phe181Ala; assay: as above
# [7] = molecular target: T6, BhFhbA Glu178Ala; assay: as above
# [8] = molecular target: B1; assay: as above
# [9] = molecular target: T7, BhFhbA Met137Ala; assay: as above
# [10] = molecular target: T8, BhFhbA Ile171Ala; assay: as above
# [11] = molecular target: T9, BhFhbA Asn88Ala; assay: as above
Binder,Kd [1] [nM],Kd [2] [nM],Kd [3] [nM],Kd [4] [nM],Kd [5] [nM],Kd [6] [nM],Kd [7] [nM],Kd [8] [nM],Kd [9] [nM],Kd [10] [nM],Kd [11] [nM]
B1,30,,,,,,,,,,
B2,,73,110,110,130,33,100,82,1000,380,110
